B1: Stimulator of interferon genes (STING), endogenous in mouse peritoneal macrophages (natural protein, UniProt Q3TBT3 1-378, looked up)
chain: MPYSNLHPAIPRPRGHRSKYVALIFLVASLMILWVAKDPPNHTLKYLALHLASHELGLLLKNLCCLAEELCHVQSRYQGSYWKAVRACLGCPIHCMAMILLSSYFYFLQNTADIYLSWMFGLLVLYKSLSMLLGLQSLTPAEVSAVCEEKKLNVAHGLAWSYYIGYLRLILPGLQARIRMFNQLHNNMLSGAGSRRLYILFPLDCGVPDNLSVVDPNIRFRDMLPQQNIDRAGIKNRVYSNSVYEILENGQPAGVCILEYATPLQTLFAMSQDAKAGFSREDRLEQAKLFCRTLEEILEDVPESRNNCRLIVYQEPTDGNSFSLSQEVLRHIRQEEKEEVTMNAPMTSVAPPPSVLSQEPRLLISGMDQPLPLRTDLI
notes: mouse STING, endogenous; also called TMEM173; MITA; source: endogenous, mouse peritoneal macrophage lysate
B2: exogenous STING in HEK293T cells (native PAGE, Fig. 3i) (natural protein, UniProt Q3TBT3 1-378, looked up)
chain: B1 chain
notes: Probably the same construct as m9 or m10; the text and legend say only 'the indicated plasmids'; source: HEK293T, transfected, in lysate

Legend:
[1] = biological target: the molecule itself; assay: native gel or EMSA; native PAGE (7% gel, no SDS, sodium deoxycholate in the cathode buffer) and immunoblot of lysates of mouse peritoneal macrophages after HSV-1, ISD or cGAMP; WT against Zc3hav1^-/- or Zc3hav1 siRNA (dimer and oligomer decreased)
[2] = biological target: the molecule itself; assay: native gel or EMSA; native PAGE and immunoblot of lysates of HEK293T cells transfected with STING with or without ZAPS or ZAPL, stimulated with DMXAA

Protein	stoichiometry N [1]	stoichiometry N [2]
B1	2	–
B2	–	2

Reference: article PMC11526107, “ZC3HAV1 facilitates STING activation and enhances inflammation” (Communications Biology, 2024)
